Measured values from the supplement of paper PMC9170038.

System: MS2 coat protein
Assay: apparent KD of MS2 coat protein; designed switch direction (-1 OFF switch, 1 ON switch): -1; higher = weaker reporter binding
Method in brief: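 RNA switches sharing common flanks were transcribed by stalled E. coli RNA polymerase on Illumina chips. A doubling series of SNAP-549-labelled MS2 coat protein, from 0.7 or 1.5 nM to 3 µM, was applied in Tris-HCl pH 7.5 buffer with KCl, MgCl2, BSA, DTT, tRNA and Tween-20. Each step lasted 0.8–1.5 h at the bottom of the series and 10–20 min at the top. Normalised cluster fluorescence was curve-fitted, giving apparent KD as the per-design median over clusters.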

[1] = Eterna round: R95, input ligand: microRNA oligo, concentration not stated
[2] = input ligand: microRNA oligo, concentration not stated

Row | Sequence | apparent KD of MS2 coat protein (input ligand: FMN 200 uM) | apparent KD of MS2 coat protein (input ligand: none) | apparent KD of MS2 coat protein [1] | apparent KD of MS2 coat protein [2] | other results
1 | GAUAUGGGAGUUAGGAUAUGUCGCCCGAACGGGUAAUAGAAGGGACUUGAGGAUCACCCAAGUCAUAAAGAAUA [Rainan] (Eterna round: R97, puzzle: Brourd's mod of Exclusion 4) | 0.0116 µM | 0.0146 µM | – | – | –
2 | CUCGGACAUGAGGAUCACCCAUGUGAGGAUAUGGCGCUAUCGUCAUUAGACGAUUGCGCCAGAAGGCACAAAUG [LRO-Excl1-27] (puzzle: Exclusion 1) | – | – | 0.0807 µM | – | –
3 | AACGCGUCAGGAUAUAGCGAAACUUAGGUAGUACAACCAUACUAGAAGGGACAUGAGGAUCACCCAUGUGGGUA [JR_Exc004_Sub210] (Eterna round: R96, puzzle: Exclusion 4) | 0.171 µM | 0.142 µM | – | 0.104 µM | –
4 | AAGGACAGAGGAUAUACAUAGAUACAGAUUCAUGUAGAACUACAUGAGGAUCACCCAUGUAGAAGGCUGUCCUA [Fiskers Ex 2 - 2] (Eterna round: R96, puzzle: Exclusion 2) | 0.412 µM | 0.0317 µM | – | 0.0253 µM | –
5 | ACAUGAGGAUCACCCAUGUACGGUUGGUUUUCUCCGGCUGUUGAGGAUAUAGUCCGGUAUCCGCGCUAGAAGGUGAGGGUUGGC [Aenatbe mod 11] (Eterna round: R96, puzzle: Exclusion NG 3) | 0.104 µM | 0.0876 µM | – | 0.0746 µM | –
6 | UUAAUACAUGUAGGAUAUGCGUGGCGAAGCUAUGCAGAAGGACAUGAGGAUCACCCAUGUUCAUGCGUCCGCGUACGGAUGCAA [JL Eng1 1.21 mod 7] (Eterna round: R96, puzzle: Exclusion NG 1) | 0.0199 µM | 0.0149 µM | – | 0.0126 µM | –
7 | AUGUGCACGCUGCGGUCCUACAUGAGGAUCACCCAUGUGGUCUGGUGGCGUGGGUCGCCGGACUUGGCUCGUCUUGA [salish99_S_TOV1_R5_029] (Eterna round: R97, puzzle: Sensor, turn-off variant 1) | 0.0179 µM | 0.0182 µM | – | – | –
8 | GCGUCGAGUGUGAGGAUAUGCUGGUCCUUGGAUCAGCAGAAGGCACAUGAGGAUCACCCAUGUGAAUACGAUGC [JL bmx4 3.14] (puzzle: Brourd's mod of Exclusion 4) | – | – | 0.0212 µM | – | –
9 | GGUUGGCGAGGAUAUACAUGAGGAUCACCCAUGUGAGAGAAAAGAGUGAGAACGAAAAGUAGAAGGCGCUGACG [salish99_ex3_r3_059] (puzzle: Exclusion 3) | – | – | 0.112 µM | – | apparent KD of MS2 coat protein (Eterna round: R95, input ligand: FMN 200 uM): 0.06 µM; apparent KD of MS2 coat protein (Eterna round: R95, input ligand: none): 0.207 µM
10 | GUGGUACAUGAGGAUCACCCAUGUUAGGAUAUCGCGUGAGGUUUUACUUCCACACACACGAGAAGGGACGUCUU (puzzle: Exclusion 1) | – | – | 0.041 µM | – | –
11 | UCCUUACUGGUCAGGAUAUACAUUCGCUACUGGGUGUAGAAGGGACAUGAGGAUCACCCAUGUACGUUACAUCC [alecazam54e] (Eterna round: R97, puzzle: Brourd's mod of Exclusion 4) | 0.0193 µM | 0.0238 µM | – | – | –
12 | CCGAAUAAGCAGGAUAUCGUAUCGGAAACGAUACGAGAAGGGCUAACAUGAGGAUCACCCAUGUUCCUUAACGG [Fiskers Ex 6 - 15] (puzzle: Exclusion 6) | – | – | 0.0192 µM | – | –
13 | GAAAAGGUAGGAUAUACGAAAAAAAAGGGUAGAAAAAAAGCACAUGAGGAUCACCCAUGUAGAAGGACCAAAAG [salish99_ex2_r3_018] (Eterna round: R96, puzzle: Exclusion 2) | – | – | – | 0.0296 µM | –
14 | UAAAUGUGAGGAUAUCAGGUGUGCUAGCGAACUGGUACAUCUGAGAAGGCACAUGAGGAUCACCCAUGUUCCUU [Mat - Exclusion 4 - Mod of JL - D50] (puzzle: Exclusion 4) | – | – | 0.0162 µM | – | –
15 | UGCAUGCUAGGAUAUACGAAACAUUAGGGUUCUUUGUGUGAACAUGAGGAUCACCCAUGUAGAAGGAGCGUGCU [Mod8 of JL-ex2-2.15 mat747 mod] (puzzle: Exclusion 2) | – | – | 0.127 µM | – | –
